Laboratory results: PMC4585930

Molecular target: GFP-CRN7 WT (UniProt Q55E54)
Assay: pull-down, western blot band intensity
Conditions: read off a plot

Sequence of UniProt Q55E54 (Q55E54 whole entry): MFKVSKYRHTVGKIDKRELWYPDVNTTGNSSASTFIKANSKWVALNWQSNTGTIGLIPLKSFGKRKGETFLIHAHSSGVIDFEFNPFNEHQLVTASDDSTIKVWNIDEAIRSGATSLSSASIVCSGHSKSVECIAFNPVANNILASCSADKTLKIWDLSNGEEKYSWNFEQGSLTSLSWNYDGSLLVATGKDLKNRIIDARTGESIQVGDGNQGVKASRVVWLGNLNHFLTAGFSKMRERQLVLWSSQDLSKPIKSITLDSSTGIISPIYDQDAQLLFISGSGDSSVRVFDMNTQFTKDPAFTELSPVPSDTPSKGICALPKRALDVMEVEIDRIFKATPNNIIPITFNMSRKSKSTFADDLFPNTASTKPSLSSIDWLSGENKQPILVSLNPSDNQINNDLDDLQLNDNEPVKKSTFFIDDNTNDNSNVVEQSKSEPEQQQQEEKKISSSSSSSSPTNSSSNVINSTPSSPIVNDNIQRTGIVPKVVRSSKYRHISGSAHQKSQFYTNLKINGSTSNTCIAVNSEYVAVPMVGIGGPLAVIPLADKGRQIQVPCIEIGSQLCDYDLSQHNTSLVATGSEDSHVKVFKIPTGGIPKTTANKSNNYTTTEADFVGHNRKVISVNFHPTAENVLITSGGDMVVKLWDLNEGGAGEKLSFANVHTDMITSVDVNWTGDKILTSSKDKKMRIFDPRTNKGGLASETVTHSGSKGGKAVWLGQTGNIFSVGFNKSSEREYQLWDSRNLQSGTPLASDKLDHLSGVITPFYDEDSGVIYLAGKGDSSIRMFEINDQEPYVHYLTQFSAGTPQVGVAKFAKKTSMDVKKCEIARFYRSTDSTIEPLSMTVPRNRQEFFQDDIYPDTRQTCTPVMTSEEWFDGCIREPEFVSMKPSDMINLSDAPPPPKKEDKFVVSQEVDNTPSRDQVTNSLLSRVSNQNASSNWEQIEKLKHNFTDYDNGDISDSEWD

“GST-RacC (from UniProt P34149) D to A (Mut2)” was tested, and the response (arbitrary units) (RacC Mut2 loaded with GDP, parent: est. 61) was 57 and the response (arbitrary units) (RacC Mut2 loaded with GTPγS, parent: est. 39) was 43.
“GST-RacC (from UniProt P34149) DD to QQ (Mut5)” was tested, and the response (arbitrary units) (RacC Mut5 loaded with GDP, parent: est. 61) was 51 and the response (arbitrary units) (RacC Mut5 loaded with GTPγS, parent: est. 39) was 49.
“GST-RacC (from UniProt P34149) ED to KK (Mut1)” gave a response (arbitrary units) (RacC Mut1 loaded with GDP, parent: est. 61) of 52 and a response (arbitrary units) (RacC Mut1 loaded with GTPγS, parent: est. 39) of 48.
“GST-RacC (from UniProt P34149) EE to KK (Mut4)” showed a response (arbitrary units) (RacC Mut4 loaded with GDP, parent: est. 61) of 54 and a response (arbitrary units) (RacC Mut4 loaded with GTPγS, parent: est. 39) of 46.
GST-RacC (from UniProt P34149) Y40K gave a response (arbitrary units) (RacC Mut3 loaded with GDP, parent: est. 61) of 64 and a response (arbitrary units) (RacC Mut3 loaded with GTPγS, parent: est. 39) of 36.
